Reference: the supplement of paper PMC10567573
± gives the standard deviation.

Assay: protein stability index of a GFP-peptide fusion (GPS, HEK-293T) (PSI 1-6); higher = more stable
Conditions: c terminus: a fixed tail appended
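Note: 24-mer peptide tiles fused after GFP, lentivirally expressed, FACS-sorted into six equal bins by GFP/DsRed ratio, decoded by Illumina sequencing, PSI is the read-weighted mean bin number.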

Sequence	protein stability index (treatment: DMSO)	protein stability index (treatment: MLN4924 1 uM, 8 h)
RFLANEVLQENYTHLPKADIFALA [WEE1]	2.27 ± 0.2	2.33 ± 0.41
PLTEQEESSPSHDRSRTVSASSTG [SRPK2]	5.25 ± 0.28	5.51 ± 0.23
QSCARAVVPSYIPLVKKHCDDSFT [CPOX]	2.73 ± 0.2	2.71 ± 0.27
AIVRKCRQKGTGKEYAAKFIKKRR [DAPK3]	3.45 ± 0.24	3.81 ± 0.32
ASAPTTPCQKSPNGVRVFPPAMPP [TRIM9]	4.14 ± 0.25	4.2 ± 0.17
WHDTCFVCAICQINLEGKTFYSKK [PDLIM7]	2.24 ± 0.29	2.21 ± 0.15
PAIIFEDANLDECIPATVRSSFAN [ALDH8A1]	3.69 ± 0.15	3.72 ± 0.2
QNVHFHRSGSPTVPIKPPCIPNGK [CAMK2D]	3.85 ± 0.26	4.05 ± 0.2
EQIHLLLSSQCFSNISRPRDNPMC [M1AP]	2.25 ± 0.43	2.33 ± 0.25
AKRLLDADDAAAVAAKCPRLSECS [TRIB1]	4 ± 0.51	4.11 ± 0.42
VTHTLTMRQRISRVEESALRALRE [PPEF2]	3.5 ± 0.38	3.86 ± 0.012
NSCINPIALYFVSKKFKNCFQSCL [EDNRA]	3.27 ± 0.34	–
ACRVTELQQQPLCTSVNTIYDNAV [LRRC59]	2.68 ± 0.4	2.61 ± 0.25
GGGPEATLSISDVRTLSEPPDKGE [ZBTB22]	5.33 ± 0.29	5.44 ± 0.31
FLRQLPFRGDDGIFDDNFIEERKQ [SNX3]	3.55 ± 0.27	3.82 ± 0.35
REQEKKPKKEANQAPKSKSGSRPR [LRRC59]	5.41 ± 0.16	5.3 ± 0.23
QVLRNNPDALSDVGEVPYWVLEPV [ELOA2]	2.92 ± 0.52	3.34 ± 0.44
FPAYTQSTASTTSTTNSTAAKPAA [ZNF207]	4.68 ± 0.21	4.81 ± 0.25
VQRVMAQALGIPATECEFVGSLPV [LPCAT4]	2.78 ± 0.25	2.76 ± 0.3
QLSIERGKVLQNKQAEICQLEEKL [CCDC89]	4.58 ± 0.4	4.45 ± 0.37
SLNSTFGSTNLTGLFFPPQLNGTA [NFE2L1]	2.52 ± 0.35	2.92 ± 0.38
AATKQEGMEGLLGTLVQLLGSDDI [CTNNB1]	2.63 ± 0.23	2.71 ± 0.58
EGHQEGLVELPASFRELLTFFCTN [SCNN1D]	2.73 ± 0.36	2.71 ± 0.34

Sequence	protein stability index (treatment: DMSO)	protein stability index (treatment: MLN4924 1 uM, 8 h)
HKACEVAPLQSVFQGQKTELNNCI [TRIM63]	3.78 ± 0.12	3.67 ± 0.41
QLPRPPIVGGNKGRSGPLPPVPLG [WAS]	3.55 ± 0.13	3.83 ± 0.64
KVAKLLGYSTHADFVLEMNTAKST [NLN]	1.9 ± 0.33	2.35 ± 0.24
LGQEFDEVTADDRKVKSTITLDGG [FABP4]	5.16 ± 0.21	5.32 ± 0.33
SDNLLVILKRKWWKYILLGLADVE [SLC35F2]	2.38 ± 0.21	2.31 ± 0.73
MRPTLIDLLPTFRHTLQKLTCEFN [FBXO39]	2.35 ± 0.31	2.44 ± 0.54
LWPFAWLQVAGLSEEQLQEPITGW [LPCAT4]	2.38 ± 0.18	2.5 ± 0.34
MDEESELIQPQDQSCWAFLPDLCL [FBXO39]	3.45 ± 0.17	3.34 ± 0.33
LDKSTTGVSEILLKTQMKMSLKCL [FEM1B]	2.6 ± 0.31	2.17 ± 0.26
MSAQSVEEDSILIIPTPDEEEKIL [ZNF24]	5.08 ± 0.19	5.23 ± 0.1
SFVLKNFPALLSTGEFLKLPFERL [KLHL13]	1.94 ± 0.42	2.07 ± 0.42
LNPHIHLMGDESACIAYIRITQYL [CAMK2A]	2.8 ± 0.44	2.71 ± 0.51
MYSSSCETTRNTTGIEESTDGMIL [LARP4]	4.33 ± 0.24	4.48 ± 0.23
DLENRCQSLTEDLEFRKSMYEEEI [LMNB1]	4.91 ± 0.056	4.76 ± 0.13
YPQDLPRPLRSREFPQFEPQRYPA [TRAF3IP2]	3.93 ± 0.3	3.6 ± 0.41
RSPDASPSRAPPSTQEPQSPREGE [GNAS]	5.36 ± 0.12	5.42 ± 0.078
ALRAQRASSNVFSNFEQTQIQEFK [MYL5]	4.07 ± 0.27	3.93 ± 0.23
SAENSVAKKEDKVPVKKQKTRTVF [NANOGP8]	4.21 ± 0.33	4.29 ± 0.34
SRVKGSAPEIDPSSDGSNFGWETK [KMT2E]	4.83 ± 0.4	4.83 ± 0.15
MAGSDTAPFLSQADDPDDGPVPGT [SPNS1]	5.57 ± 0.17	5.34 ± 0.23
QFLEEINKWTVQYNVSPLSWNVAV [PTPN9]	2.79 ± 0.82	2.87 ± 0.49
ESIQQTARSIAEQAHELAYDPNYM [PPTC7]	4.52 ± 0.19	4.3 ± 0.37
